Measurements from a protein production outcome set (Wang et al. 2014).

Assay: label from the status in PepcDB records

Row | Sequence | protein production
1 | MSGSEYSEVDVNEGDSIWALADQYAAKSDMAKADFVSWVEKENNLTDGHVKAGDYVVIPVHETKLQRSDSTIQLANQLEHHHHHH | not failed
2 | MSGSGKTITQMKSTAILAPVIAVILILSACGKPMDAQALVAEAKQYQQQGNDKAAIIQLKNALQQSPNDPEIRYLLGTLYNREGDIQSAEKELNKALDLGMDPVKVLPGLSRAWLGMGKFQQVLDETGKLSDKGNFAELLALRGNASLALGKFEEAKVLFEQALQDKPGFSDALTGLARYSLARNDIESAMNFSEEAVKLNPENSDAVLFRGDLLRAQNKIDEALADYDKAIKLNPESEAAYINRATISISTKKFEAAQADLDAVRKIAPGSLLAAYTQALLDFSQGKHAVALETLQRILSSAPGHLPSVLLAGATQFALGSFPQAGQYVEQYLKAIPNNLYAIKLMASIQLKNNQVKQAITTLTPALKSVQQDPQLFALAGEAYMRSKDFTKASEYFEKAGELAPDNASLYTALAMSKMGQGDSKSAIADLEQAAQLDDQSGRAGVMLVLTHLQLREFDKALKAVESQLAEQPDNPLLHNLKGGIYLGKKDLAKARSSFNQALSIQSDYFPAISNLARIDMQENHPEAAQQRFEDVLKRDKKNVQAMNALAGIALARGNKEEATGWLEKASRENPDELQPALQLGAHYLAVNDPGKSLALAKKLQGIHPDNLSIVELLARSYLATGDKDAALENFQKLAARLPDSAPAQLQLAQIYSSMQNNKAAAGSLKKALTIKPDLWEAKLMQAQLAVAADRVEDAFNISHDLQKQHEKLPVGFELEGDLQMRQKNAAAAATAYEKALSRQKNSQLLIKLHTALSQSGKEKQADQRLNQWLKENPTDAVTRTYLAGVYLASKKYDPAIKEYQTILKQHPDHAATLNNLAWVYQQKKDPVALEYAEKAYKQAPDSPAILDTLGWILIEKGDAERGTSLLQKAVTAVPEAAEIRYHYAVGLFKSGNKAEARQELEKLLGGDKPFPQRDDAKKLLESL | failed
3 | MSGSKTSAEKKESETEKSSDIAQVKIKDVSYTLPSKYDKSTSDDQLVLKVNVAVKNTGKDPLNVDSMDFTLYQGDTKMSDTDPEDYSEKLQGSTINADKSVEGNLFFVVDKGKQYELNYTPESYGDKKPKSVTFKIDGKDKKILATADKLQDSAKALSAYVDVLLFGKDNADFEKITGANKNEIVNDFNESAKDGYLSASGLSSTYADSKALDNIVNGIKEGLSKNSSIQAKTTSISKDEAIVEATVKPVDASSLSDRIEDKVKDYYSKNSSASYEEAVKYALQVYPEEFKKLGPASSEKTVEVKMKKNDIDQWQLDMDDYRAAELVEAFIKELEHHHHHH | not failed
4 | MSGSNVAPEDKRMEDRKFRANIPPQTIVFCTVYQTTIGLTNSQHQKIRLASLRLPLLFFQQRQTSAAPPKEDVMNEETLKKIQSNPKYLELVHKKTSLGWTLAIVMLVIYYGYILVLAFAPSLLGKPLYQGATMTVGIPVGVCIILSAFVLTGIYVRRANQEFDPLTQQIVEEAK | failed
5 | MSGTRHQIVVALGDTRYRVDRPFGTWPQTAGKVSDVVVLRDGRVLVLLRSDPYVDPDGPRVIVLSCDGDYLGAWGDLDIADAHLMTPAPDGRLFIVDRDMHEIIVFSADGQRVGGIGTRGAPGTPFNHPTDVAFAPSGDFYVSDGYAGWHVHRFAGDGTHLATWGAFGSGRGEFLEPHSLWCLPDGRVVVVDRCNNRLQVFDADGVFLDEWTGFHRAVGIWGDDAGDIFVSDQVPSLHRISQNGTRLGRARPVLNGAHGIFGSPDGTIYLAEANPSRVSRLTPL | failed
6 | MSGVLLLFIIGFIGSFISGMVGIGGAIINYPMILYIPVLLGFTGYTSHEVSGITAVQVFFATFAGAWAYRKSTDMNKMLVVYMGASILIGSFIGSFSANLLDEHAVNVVYTVLATIAAMMMFVPKKNNSGAVKYNKWLASVLAFIVGGVSGIIGAGGAFLLVPIMLVILKLPLRMTIATSIAITFISSVGITTGKVITGQVVIIPALIIAVASIFAAPLGARVGKRINQKVLQYMLSILIVGTAVKMWIDMILK | failed
7 | MSHDHHHHHGPGAAHGAGGHSHAPQDFGRAFAIGIALNMVFVVAEAAFGYFSNSMALIADAGHNLSDVAGLVVAWIAAGLSKRPPSARYTYGLRGSSILAALFNAVFLLLAVGAIGWEAVVRLFAPEPVAGITVMVVAGIGIVINAVTAWLFASGRHSDLNIRGAYLHMAADAAVSAAVVVAGVIILSTGWYWIDPAVSLIVAVVIVWGTWGLLRDSTALSLAAVPRDIDPTAVRAFLSKLPGVTQVHDLHIWGMSTTEVALTCHLVMPGGSPGDPFLVDLAHELQHDFGIAHTTVQIETDPNTVCALAPEHVV | failed
8 | MSHGGGGHAAELYPEEQIFAVGIALSLVGCYLANFLSPYGLGMLIGGLLASAACVAGANTVRKVAAYGLGTGVPSIGMVSLGMGTLAAVAGVLIPDYFNLPYLVAPIITLIVSAVIGYIVGRLTVNPVGMKIPIMVRSMTFLSIAGAMALLGFTVAYVGSLEPQKYIDYALNNGMMALAFIAAGMAILHPFNACLGPNESHKRTLTLAVACGFITWFVFSVVKLDIVSIIVSIILWAIVYVKFVKMSFKDACAVLHVPEIPKKEE | failed
9 | MSHRRDYGSDAVHVRITHDPPPENCFPNSGDSSVWATEDDYSRVWAINSDGAESPSKKTRSSSSSEIGKSFFKTKLCFKFRAGTCPYSASSCHFAHSAEELRLPPPPPPNWQETVTEASRNRESFAVSLGPRGNVAQTLKSPNWKTRICNKWQTTGYCPFGSHCHFAHGPSGKATAFFIY | failed
10 | MSHTEAATVHSTAPASHPVRIALIGAGRIGSNHAEIVARLVPGASLVAVSDPVGESAQRLATTLGASLATTTVDDVLTSDEVDAVLITAPARSHTDLVVAAAAAGKHVFVEKPMAVTLADADRAIAAAADAGIVLQVGFNRRFAPGFAAARAAIDAQKVGAPQLLRSLTRDPGPYTADPARVPQWTIFLETLIHDFDTLCFLNPDARPVRVHAVADALVRPDAKGAGHLDTAVVTVQFDNGAIATAEASFSALYGYDVRAEVFGSGGMITAGSGLSTDMTYYGPDGMHADTARRDTDLLHSAYLGELTAFVDAIRTHTPAVVTGQDARTALSIALAAIRSVETGSAVDLDG | failed
11 | MSHTLKSVAEDWFAIKKTTITEVTAKSLWRKFENHVFPKLGHRPIDKILAPEAIEALKPLAAKGNLETTGKIIGHLNNIMTHAVNTGILHHNPLSGIRSAFSAPKVTNLEHHHHHH | not failed
12 | MSHWLILPILLPLFAGSLLLLPLAERWQRGLSLLAALALIPLSLLLIRTAASGDLSVYALGNWAAPFGIVLMLDRLAALMLLATAVLGSAALIYALRGEDRLGKHFHALFQFQLLGINGAFLTGDLFNLFVFFEILLIASYALLLHGGGAERVRSGLHYVILNLVGSAFFLIAVGTLYGLTGTLNMADMAQKIAMADAERAPLLAAAGLLLLVVFALKAALLPLYFWLPRAYATASAPVAALFAIMTKVGIYSILRVYTLVFGDAAGELANLAQAWLWPLALATLGLGAIGALAARTLQGLLAYLVVVSAGTLLAGVALGSERALAASLYYLLHSTWIAGGLFLLADLVARQRGDKAGDLVQGPALQNPRLLGGAFFIGAIAVAGLPPLSGFFGKVMLLQSVAPGSQALALWSVVLGSGLVALVALSRAGSTLFWRTGHTVLGSAELDHGRLFACILLLSAGPLLVFAAKPLLAYVQATAAQLHDLDLYRQIITRGGAA | failed
13 | MSHYNPEQLNFVNNHRNNVKEGYFYKNNLLKENNNKMESSKNCIMVPLINNPSHSENNFSKNNRDENINEEKSKYQFEYQNKIIQVPELKYVDKMVYDPVIIEKVKYVPKEVIKYNIIKKPVIKNIITEKKVDVLQVKEKISFKEEEIVEDVYNYVDKDLNTKWNESQYDNEMYKDLTKKKNYIGQNHLLPNNINKMGHINDRTYKHINNNITNLLEPFGPQIDVEENKIIENVFVPNVEKVIEVNKKIDIPINLPVPYIVPKPKIIDVDVPVFKFNDKYVPVPVSKKIIPKITWTDKIYQVDCLIEKPYLVYHNIIKMVPTDSKITVREYPKGIKKINPEELYEVDNLALWMRVNADLKQEHDQMKNEKYETNKKKGKGETEQLDDNISSDHTCECSESYETYEKLSNEEFNSSNEETTIKSSNENILDTLPLHPGHPLEFIHLQNKWINQDTTNIPDMYDQKYLDAHRNAVFNLTTQMPREAEVEAKQLLYIQKKLQQEETL | failed
14 | MSIEAKFKKLGTDNAPGQEVRQSAAGLEALIRGAPIEGRPVDFSHGDVDAHEPTPGAFDLFSAGVQSGGVQAYTEYRGDLGIRDLLAPRLAAFTGAPVDARDGLIITPGTQGALFLAVAATVARGDKVAIVQPDYFANRKLVEFFEGEMVPVQLDYVSADETRAGLDLTGLEEAFKAGARVFLFSNPNNPAGVVYSAEEIGQIAALAARYGATVIADQLYSRLRYAGASYTHLRAEAAVDAENVVTIMGPSKTESLSGYRLGVAFGSRAIIARMEKLQAIVSLRAAGYSQAVLRGWFDEAPGWMEDRIARHQAIRDELLHVLRGCEGVFARTPQAGSYLFPRLPKLAVAPAEFVKILRLQAGVVVTPGTEFSPHTADSVRLNFSQDHEAAVAAARRIVTLVERYRA | not failed
15 | MSIESLWSSRFQQHIQNIITYFARMINGLLYSFIFISCVGAYYYAQFLKASPSKGISLIIITIVLTFIITRCPIRTFIQKPDAVYLLALEEKLTSYFKKSLLYNYIMQLFPLLFTFLILVPLAMQSLQLTVPFLCTIFIVLMITKAWNMYIHWMWRDSHEKNIWLIIRITCNALIIYMLFYSANVLILGGLLLLLAFLLLYTKKQPTKRIPWDYIIEQEEKMNVRFYQFASIFTDVPQLNKQVNKRKWLTNWIEPLLHKKRATFFYLHTLAFLRGNDYFGIYIRLRLIGAFALYFIPNIYVKGAIAYIVLYMISMQLRSLWKYFSGNIIVALYPIHTEERMKQFLHLIFILLSIQLIVFSSVILIATGQFLHILIIMIVGLLWIKFIIVPKTKQRISAF | failed
16 | MSIITRLFNNSDFEKLNQLCKLYDDLGYPTNENDLKKRLKKITNHDDYFLLLLIKENKIIGLSGMCKMMFYEKNAEYMRILAFVIHSEFRKKGYGKRLLADSEEFSKRLNCKAITLNSGNRNERLSAHKLYSDNGYVSNTSGFTKQL | not failed
17 | MSIKVGDVFKYERRFTEEEVFEFANITGDKGRHHMEYDENGRLMVHGLLTASIGTKVGEELHYIARELVSEFIRPVFAGDTITCELTLTNVEQMEGYKKVSIESVYRNQNEKTVLVGTSYGVIRG | failed
18 | MSILMPVRNEERFLPAALASLCRQSLTAWELIVVDDGSTDDTPELLRVAAARDRRVRVFNNAGAGLVDALNYGLAHCRAELVARMDGDDISHPQRLERQAAALDADPGLGLVATRFRHFPRHSVGLGMRAYEEWQNGLLTHEEIMRDRFVESPVVHPSVMARRQALTDAGGYRKTGWAEDYDLWLRLAAGGVRFTRLPEVLFFWRERPERATRTMGEYAADAFRACKIHHLCQGFLLGVDNVTLAGAGLEGRAWQRALAREGVRVGRWLDVDPRKQGRILHGAPVTAPDDVRAGAEKILVTVGTRGARDGVRAWARRAGLREGEDFVCVTLEHHHHHH | failed
19 | MSINDVAKLFGSAWIVMMADVDAASILTGVADGQTYGYRLIILLLVLTLPLYIVQEAAGRVGAVNNGKGLGTLLREKFSQKFALTAAIPMFLVDLFTYVVEYVGIAVGSLMIGVPVYISLPLFFVIHLSIVLTRTYEKMEKTLLGISFFLVIAFIVQAFLRGVSPNQQLLYFSASKSFLFFLAANIGAVVMPFMIFYQASATAYKYNNSALSKDVKVKWSSMETFIGALVSELLMVAIEISTTGLSSSIDPLNYREMSYALSAISGIYSPYVFGIGLICGGLLALIVESLGSAWGTLEALNKHNHRNTTLLYVFESVPAIIIASIFSQNYDQIVNTVLSLMSVTPIIVFIPAFFVGLLVGDEKIMGKYSYSRRRMVIYWITVVILLISGIMSLL | failed
20 | MSINPYVTIFLLLAATSSQALSISLADPCTVSDFPALCRSTIKGQTNVNAATDVAIKELMKRTRQAKKIAEKELKRDGGVATCLSNFNSAFDNLEKALTNIKENDGFSLNINLSAALTDYDTCSDSMKETKEVNVIYKSAGVLYRMADNCLALSTLVKH | failed
